The nature of data set [1]: Determination of the isoelectric point by isoelectric focusing. The format is physicochemical. The settings on record: Ampholine PAGplate pH 3.5-9.5, located by thrombin inhibition assay. The procedure:
The determination was carried out with an LKB Multiphor 2117 (horizontal system) and an LKB 2103 power supply. Precast gels were employed (Pharmacia Ampholine PAGplate pH 3.5-9.5). The standard proteins employed were amyloglucosidase, pH 3.5; soybean trypsin inhibitor, pH 4.55; β-lactoglobulin A, pH 5.2; bovine carbonic anhydrase, pH 5.85; human carbonic anhydrase, pH 6.55; horse myoglobin, pH 6.85 and 7.35; lentil lectin, pH 8.15, 8.45, 8.65 and trypsinogen, pH 9.3.
Focusing conditions: 1500 volts, 30 watts. Buffers:
cathode 1M sodium hydroxide solution
The plates were prefocused for 30 minutes to produce a pH gradient. The samples were loaded onto filter disks which lay on the gel. Focusing was continued for 30 minutes, the filter disks were removed and, after a further 30 minutes, focusing was stopped. The gels were immediately cut into 2 mm slices and transferred into distilled water. The protein eluted out of the gel slices overnight. The location of the thrombin inhibitor was determined by a thrombin inhibition assay. The pH can also be determined directly using a pH electrode.

For data set [2], the system named is Thrombin. Description: Binding to affinity column with immobilized thrombin. Conditions: immobilized thrombin on Sepharose. Here is the method:
The combined active fractions were loaded onto an affinity column with immobilized thrombin (diameter 1.5 cm, height 6.5 cm, volume 11.5 ml, 60 ml/h). The column was prepared as in Example 3.
The column was equilibrated with 20 mM sodium phosphate pH 7.5. After the protein solution had been loaded onto the column it was washed with 10 column volumes of equilibration buffer until the absorption at 280 nm decreased to zero.
It was then washed with 0.5M NaCl, 20 mM sodium phosphate buffer pH 7.5. This removed non-specifically adsorbed material.
Protein specifically bound to thrombin was eluted with 0.1M glycine, 0.5M NaCl pH 2.8. The column was then immediately readjusted to pH 7.5 with phosphate buffer.
2 g of CNBr-activated Sepharose (Pharmacia) were washed with 200 ml of 1 mM HCl on a suction funnel. The gel was taken up in 100 mM NaHCO3, 500 mM NaCl pH 8.3 and immediately mixed with 10,000 units of thrombin (Sigma) in 100 mM NaHCO3, 500 mM NaCl, pH 8.3.
The solution was gently shaken at 4° C. for 24 hours.
The gel material was allowed to settle and then washed with 100 mM NaHCO3, 500 mM NaCl, pH 8.3. The Sepharose was then incubated with 100 mM NaHCO3, 500 mM NaCl, 1M ethanolamine pH 8.3 for 2 hours.
To remove unbound thrombin, before use the gel material is washed once more in the column with 20 column volumes of PBS pH 7.4.

The subject of data set [3] is Thrombin. Description: Determination of the inhibition of thrombin by the inhibitor (Chromozym TH optical assay). Format: biochemical. Conditions: in vitro enzyme assay. The procedure: The purification of the protein can be monitored by a thrombin activity assay. It is expedient to use an optical assay in which a chromogenic substrate, for example Chromozym T, is converted by thrombin. The fractions containing the novel protein can be identified by their thrombin-inhibiting action on addition to this optical assay.
Thrombin (Boehringer Mannheim) was dissolved to a final concentration of 25 mU/ml in phosphate-buffered saline (PBS) ([…], […], 0.144 g/l sodium phosphate, 0.2 g/l potassium phosphate, pH 7.5).
Chromozym TH (Boehringer Mannheim) was dissolved in 20 ml of H2 O per vial.
50 μl of thrombin solution and 100 μl of Chromozym plus 25 μl of sample or buffer were placed in the wells of a microtiter plate. The absorption at 405 nm was measured at 37° C. immediately thereafter at time 0 and after 30 minutes.
When the sample was deeply colored another control without thrombin was treated as described above.
The activity of thrombin liberates a dye which absorbs at 405 nm from the chromogenic substrate. Inhibition of the thrombin by a thrombin inhibitor is evident from a smaller increase in the absorption at 405 nm and was quantified using a calibration plot.

In turn, hirudin [reference compound] yielded an isoelectric point in data set [1] of no more than 3.5 pH.

B1: novel protein: Thrombin-inhibitory protein isolated from assassin bugs (Rhodnius prolixus); contains 103 amino acids of SEQ ID NO: 3, N-terminus SEQ ID NO: 1 (protein)
chain: EGGEPCACPHALHRVCGSDGETYSNPCTLNCAKFNGKPELVKVHDGPCEPDEDEDVCQECDGDEYKPVCGSDDITYDNNCRLECASISSSPGVELKHEGPCRT
With B1, in the data set on Thrombin [2], the “binding to thrombin affinity column” value was “binds specifically to a thrombin affinity column”. Moreover, the values for the isoelectric point in data set [1] and in data set [1] (listed as novel inhibitor) were 3.7-4.7 pH and 4.2±0.5 pH, respectively. Moreover, the “inhibition of the biological activity of thrombin” value in the data set with Thrombin [3] is reported as “inhibits the biological activity of thrombin”.

The values are drawn from patent US5523287A, “Thrombin-inhibitory protein from assassin bugs” (BASF Aktiengesellschaft, priority 1991, dated 1996).
